Assay results: patent US20200079855A1 (Pfizer, published 2020)
Values joined by “and” are separate entries in the source; they are usually repeats but may differ in a detail not shown here. Equal values may be shown once.

Legend:
[1] = target: T1, recombinant rat αvβ8 integrin (rat, UniProt F1LZX9 31-987; A0A0G2JVU1 43-682); test: SPR (Biacore T200), Fab over biotinylated recombinant αvβ8 on streptavidin chip, n>=3
T1 construct: Recombinant protein immobilised on the Biacore chip
Procedure: (§1) More specifically, recombinant αvβ8 integrin (e.g., R&D Systems) was biotin labeled via primary amines and immobilized on a Sensor Chip SA using a Biacore™ T200 instrument (GE Healthcare Life Sciences). Fab binding experiments were performed at 25° C. using a 30 μl/min flow rate in 0.01 M HEPES pH 7.4, 0.15 M NaCl, 1-2 mM MgCl₂, and 0.005% v/v surfactant P20 (HBS-P) buffer. Association was monitored for 5-10 minutes and dissociation for a further 15-20 minutes for each Fab concentration. After each injection, the chip surface was regenerated with IgG elution buffer (Thermo Fisher Scientific). All data was analyzed using the Biacore™ T200 Evaluation software. Data was dual background subtracted using the adjacent flow cell coupled with streptavidin without captured integrin, and buffer only injections. Kinetic constants for at least three experiments were obtained and reported as the mean.
(§2) To evaluate the monomeric KD of the Fab ADWA11 2.4, also referred to herein as ADWA-11 VH05-2/VK01(2.4) and ADWA11 5-2 2.4, and the parental mouse IgG, recombinant human, cynomolgus, mouse, and rat αvβ8 was immobilized on a Biacore chip and the ka and kd of the Fabs were determined as generally described herein (Table 6).

[2] = target: T2, recombinant mouse αvβ8 integrin (mouse, UniProt P43406 31-988; Q0VBD0 22-681, limits assumed); test: as above
T2 construct: Recombinant protein immobilised on the Biacore chip
Procedure: as §1, §2

[3] = target: T3, recombinant cynomolgus monkey αvβ8 integrin (cynomolgus monkey, limits assumed); test: as above
T3 construct: Recombinant protein immobilised on the Biacore chip; also called cyno αvβ8; cynomolgus αvβ8
T3 chain 1: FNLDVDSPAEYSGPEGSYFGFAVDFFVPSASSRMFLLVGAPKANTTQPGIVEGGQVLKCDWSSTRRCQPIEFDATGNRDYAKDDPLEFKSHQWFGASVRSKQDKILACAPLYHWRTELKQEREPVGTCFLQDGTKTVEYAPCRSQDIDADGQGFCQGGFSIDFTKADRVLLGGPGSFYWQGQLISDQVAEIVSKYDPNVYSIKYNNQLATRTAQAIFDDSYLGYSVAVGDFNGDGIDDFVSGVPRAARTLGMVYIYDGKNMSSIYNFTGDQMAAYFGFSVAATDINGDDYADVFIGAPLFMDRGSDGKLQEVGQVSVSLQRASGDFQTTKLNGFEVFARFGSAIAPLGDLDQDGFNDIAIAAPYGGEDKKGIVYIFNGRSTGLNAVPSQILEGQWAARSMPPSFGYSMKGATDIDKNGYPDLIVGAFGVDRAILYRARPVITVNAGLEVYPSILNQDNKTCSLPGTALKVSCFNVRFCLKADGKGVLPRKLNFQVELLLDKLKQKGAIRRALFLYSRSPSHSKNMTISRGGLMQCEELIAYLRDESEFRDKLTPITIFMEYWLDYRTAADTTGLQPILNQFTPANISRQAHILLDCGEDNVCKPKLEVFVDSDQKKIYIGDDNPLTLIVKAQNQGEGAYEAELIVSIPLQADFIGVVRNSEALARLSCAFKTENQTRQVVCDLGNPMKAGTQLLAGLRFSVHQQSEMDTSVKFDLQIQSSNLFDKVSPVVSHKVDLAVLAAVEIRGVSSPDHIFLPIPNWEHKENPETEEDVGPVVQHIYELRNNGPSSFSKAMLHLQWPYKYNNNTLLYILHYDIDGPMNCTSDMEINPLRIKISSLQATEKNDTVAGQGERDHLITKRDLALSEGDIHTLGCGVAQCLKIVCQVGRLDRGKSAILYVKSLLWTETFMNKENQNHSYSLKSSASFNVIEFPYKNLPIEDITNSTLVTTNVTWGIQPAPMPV
T3 chain 2: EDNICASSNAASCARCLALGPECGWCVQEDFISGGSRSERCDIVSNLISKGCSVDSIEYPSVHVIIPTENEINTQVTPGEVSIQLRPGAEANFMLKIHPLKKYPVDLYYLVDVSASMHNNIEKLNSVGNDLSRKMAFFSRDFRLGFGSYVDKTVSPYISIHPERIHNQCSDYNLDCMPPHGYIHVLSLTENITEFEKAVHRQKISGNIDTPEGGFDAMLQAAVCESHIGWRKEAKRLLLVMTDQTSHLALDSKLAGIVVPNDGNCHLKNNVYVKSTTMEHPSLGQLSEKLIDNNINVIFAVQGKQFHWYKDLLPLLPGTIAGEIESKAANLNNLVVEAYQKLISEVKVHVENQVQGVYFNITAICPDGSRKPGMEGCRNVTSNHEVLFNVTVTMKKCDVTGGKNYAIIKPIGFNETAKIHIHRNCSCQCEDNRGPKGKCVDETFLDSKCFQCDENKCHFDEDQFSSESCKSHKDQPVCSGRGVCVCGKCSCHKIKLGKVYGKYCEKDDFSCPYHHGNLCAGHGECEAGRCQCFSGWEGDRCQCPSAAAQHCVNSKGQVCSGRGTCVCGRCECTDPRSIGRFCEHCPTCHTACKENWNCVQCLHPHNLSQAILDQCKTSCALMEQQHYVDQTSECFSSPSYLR
Procedure: as §1, §2

[4] = target: recombinant human αvβ8 integrin (human) (UniProt P06756); test: as above
[5] = target: recombinant human αvβ8 integrin (human) (UniProt P06756); test: ELISA (DELFIA counts) on human αvβ8, Fab titration
[6] = target: recombinant human αvβ8 integrin (human) (UniProt P06756); test: ELISA (DELFIA counts) on human αvβ8, Fab titration; identity of the molecule see the row before
[7] = target: recombinant human αvβ8 integrin (human) (UniProt P06756); test: SPR (Biacore), Fab affinity of Table 3
[8] = target: T4, human αvβ8 integrin on U251 cells (human, UniProt P06756 31-1048); test: cell-based or functional assay
[9] = target: T4, human αvβ8 integrin on U251 cells; test: flow cytometry, IgG binding to U251 cells (MFI PE-A), left panel ADWA11_IgG_U251 cell binding; EC50 unit inferred, axis Log10 [mAb] nM
[10] = target: T5, mouse αvβ8 integrin on C8-S cells (mouse, UniProt P43406 31-1044; Q0VBD0 22-767); test: flow cytometry, IgG binding to C8-S cells (MFI PE-A), right panel ADWA11_IgG_C8-S cell binding; EC50 unit inferred, axis Log10 [mAb] nM
T5 construct: Endogenous αvβ8 of C8-S mouse astrocyte cells; also called C8-S (mouse astrocyte); C8-S (mouse avb8)
Procedure: 100,000 cells were incubated with a dilution series of the anti-αvβ8 or human IgG1_3 mut Isotype antibody for three to four hours on ice. The cells were spun down for five minutes at 300 g force. The cells were then washed three times with wash buffer (PBS+0.2% BSA) to remove excess unbound antibodies. After thorough washing, cells were incubated with Fab′2 anti-human Fc-PE (Invitrogen) or goat Fab′2 anti-mouse-APC (Jackson Labs) at 1:1000 dilution along with LIVE/DEAD fixable cell stain (Invitrogen) at 1:2000 to distinguish live cells. The whole content was incubated for 30 minutes on ice. After washing, the stained cells were analyzed on BD biosciences Fortessa flow cytometer (gated for live cells) using FlowJo analysis software. The mean fluorescence intensities (MFI) at different antibody concentrations were plotted for various antibodies.
The apparent-affinity of ADWA11 2.4 for U251 (human glioblastoma) or C8-S (mouse astrocyte) cells was also evaluated in a cell-binding assay, according to the methods as generally described herein. Briefly, cells were incubated with a serial dilution of ADWA11 2.4 for 4 hours on ice, followed by detection on bound antibody with an anti-human-PE secondary antibody, and analyzed by flow cytometry.

[11] = target: T6, recombinant human αvβ6 integrin (human, UniProt P06756 31-992; P18564 22-707); test: Biacore, recombinant human αvβ6 immobilised on the chip; concentration not shown
T6 construct: Used in ELISA and immobilised on the Biacore chip; construct not described; also called hαvβ6; AVB6
Procedure: (§3) To evaluate the specificity of ADWA11 2.4, recombinant human αvβ6 and αvβ3 were immobilized on a Biacore chip and binding of the parental murine and humanized mAb variant of ADWA11 2.4 was determined.

[12] = target: T7, recombinant human αvβ3 integrin (human, UniProt P06756 31-992; P05106 27-718); test: Biacore, recombinant human αvβ3 immobilised on the chip; concentration not shown
T7 construct: Used in ELISA and immobilised on the Biacore chip; construct not described; also called hαvβ3; AVB3
Procedure: as §3

[13] = target: T4, human αvβ8 integrin on U251 cells; test: flow cytometry, IgG binding to U251 cells (ΔMFI, background subtracted); EC50 unit inferred, axis Log10 [Ab] (nM); Table 7 of the text gives the rounded value as U251 app KD 823 pM
[14] = target: T4, human αvβ8 integrin on U251 cells; test: apparent KD, flow cytometry on U251 cells

T2 sequence (P43406 31-988 limits assumed, chain 1 of 2): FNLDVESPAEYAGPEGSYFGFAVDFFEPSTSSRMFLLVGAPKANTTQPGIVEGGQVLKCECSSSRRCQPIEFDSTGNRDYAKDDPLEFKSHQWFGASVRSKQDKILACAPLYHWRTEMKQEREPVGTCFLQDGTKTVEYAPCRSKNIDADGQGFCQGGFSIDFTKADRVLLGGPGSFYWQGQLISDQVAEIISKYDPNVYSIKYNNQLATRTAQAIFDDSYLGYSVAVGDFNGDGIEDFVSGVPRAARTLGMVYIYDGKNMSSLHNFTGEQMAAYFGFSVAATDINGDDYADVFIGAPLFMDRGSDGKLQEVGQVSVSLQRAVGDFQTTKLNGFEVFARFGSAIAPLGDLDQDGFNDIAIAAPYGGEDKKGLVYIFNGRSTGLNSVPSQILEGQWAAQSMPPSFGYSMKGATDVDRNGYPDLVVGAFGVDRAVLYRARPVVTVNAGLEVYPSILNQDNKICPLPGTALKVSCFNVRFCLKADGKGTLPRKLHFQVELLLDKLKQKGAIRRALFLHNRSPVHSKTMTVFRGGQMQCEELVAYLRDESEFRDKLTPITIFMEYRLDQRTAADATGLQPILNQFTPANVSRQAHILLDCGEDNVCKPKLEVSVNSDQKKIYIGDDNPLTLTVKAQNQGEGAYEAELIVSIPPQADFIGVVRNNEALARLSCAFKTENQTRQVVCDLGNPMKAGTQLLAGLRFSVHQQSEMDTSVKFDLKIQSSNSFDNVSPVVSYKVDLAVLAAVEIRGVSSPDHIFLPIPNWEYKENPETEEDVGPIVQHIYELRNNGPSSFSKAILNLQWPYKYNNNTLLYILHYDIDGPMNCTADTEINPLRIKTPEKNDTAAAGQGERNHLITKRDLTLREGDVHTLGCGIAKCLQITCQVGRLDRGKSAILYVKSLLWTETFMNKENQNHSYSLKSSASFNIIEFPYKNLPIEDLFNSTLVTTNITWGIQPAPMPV
T2 sequence (Q0VBD0 22-681 limits assumed, chain 2 of 2): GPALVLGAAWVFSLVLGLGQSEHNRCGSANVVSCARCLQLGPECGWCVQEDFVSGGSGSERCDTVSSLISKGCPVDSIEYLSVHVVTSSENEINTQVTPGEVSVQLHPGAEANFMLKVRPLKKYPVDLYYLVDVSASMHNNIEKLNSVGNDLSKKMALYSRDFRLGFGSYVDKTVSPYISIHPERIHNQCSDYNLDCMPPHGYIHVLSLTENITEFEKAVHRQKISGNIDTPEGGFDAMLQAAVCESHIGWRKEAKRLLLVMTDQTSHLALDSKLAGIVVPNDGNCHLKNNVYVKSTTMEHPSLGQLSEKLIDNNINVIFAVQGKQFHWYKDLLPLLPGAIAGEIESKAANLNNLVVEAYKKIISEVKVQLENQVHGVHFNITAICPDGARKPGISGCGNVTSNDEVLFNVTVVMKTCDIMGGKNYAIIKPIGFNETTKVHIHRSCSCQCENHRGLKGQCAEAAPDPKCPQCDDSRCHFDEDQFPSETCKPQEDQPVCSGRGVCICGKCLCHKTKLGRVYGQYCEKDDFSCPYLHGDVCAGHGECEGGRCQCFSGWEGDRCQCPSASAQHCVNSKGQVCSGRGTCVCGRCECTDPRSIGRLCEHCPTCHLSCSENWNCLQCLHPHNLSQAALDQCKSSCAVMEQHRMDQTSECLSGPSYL
T5 sequence (P43406 31-1044 limits assumed, chain 1 of 2): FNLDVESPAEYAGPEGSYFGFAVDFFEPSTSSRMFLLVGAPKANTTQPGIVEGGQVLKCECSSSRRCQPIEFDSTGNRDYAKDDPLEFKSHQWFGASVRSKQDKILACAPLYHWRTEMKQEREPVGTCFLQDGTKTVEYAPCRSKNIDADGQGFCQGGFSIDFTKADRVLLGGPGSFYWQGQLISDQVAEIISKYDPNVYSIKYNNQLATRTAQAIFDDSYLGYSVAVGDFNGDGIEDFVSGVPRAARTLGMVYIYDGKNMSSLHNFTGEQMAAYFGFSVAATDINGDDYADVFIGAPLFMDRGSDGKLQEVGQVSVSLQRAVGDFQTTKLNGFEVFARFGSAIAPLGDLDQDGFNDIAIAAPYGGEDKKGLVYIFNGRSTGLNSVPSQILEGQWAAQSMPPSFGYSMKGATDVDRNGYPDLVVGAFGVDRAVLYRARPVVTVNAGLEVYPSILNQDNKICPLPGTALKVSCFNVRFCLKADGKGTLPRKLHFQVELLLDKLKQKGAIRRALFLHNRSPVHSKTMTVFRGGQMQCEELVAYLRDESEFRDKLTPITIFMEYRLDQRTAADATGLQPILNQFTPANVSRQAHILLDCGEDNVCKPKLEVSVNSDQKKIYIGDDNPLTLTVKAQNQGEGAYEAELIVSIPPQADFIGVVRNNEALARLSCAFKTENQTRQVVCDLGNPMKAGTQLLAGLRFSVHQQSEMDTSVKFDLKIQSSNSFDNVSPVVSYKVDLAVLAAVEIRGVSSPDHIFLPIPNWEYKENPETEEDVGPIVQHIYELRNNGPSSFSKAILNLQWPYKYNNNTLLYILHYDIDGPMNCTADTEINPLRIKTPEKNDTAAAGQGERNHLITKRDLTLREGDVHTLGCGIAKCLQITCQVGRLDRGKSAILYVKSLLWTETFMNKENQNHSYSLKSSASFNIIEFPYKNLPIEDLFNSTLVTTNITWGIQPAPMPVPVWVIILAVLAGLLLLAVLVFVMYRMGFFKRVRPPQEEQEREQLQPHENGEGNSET
T5 sequence (Q0VBD0 22-767 limits assumed, chain 2 of 2): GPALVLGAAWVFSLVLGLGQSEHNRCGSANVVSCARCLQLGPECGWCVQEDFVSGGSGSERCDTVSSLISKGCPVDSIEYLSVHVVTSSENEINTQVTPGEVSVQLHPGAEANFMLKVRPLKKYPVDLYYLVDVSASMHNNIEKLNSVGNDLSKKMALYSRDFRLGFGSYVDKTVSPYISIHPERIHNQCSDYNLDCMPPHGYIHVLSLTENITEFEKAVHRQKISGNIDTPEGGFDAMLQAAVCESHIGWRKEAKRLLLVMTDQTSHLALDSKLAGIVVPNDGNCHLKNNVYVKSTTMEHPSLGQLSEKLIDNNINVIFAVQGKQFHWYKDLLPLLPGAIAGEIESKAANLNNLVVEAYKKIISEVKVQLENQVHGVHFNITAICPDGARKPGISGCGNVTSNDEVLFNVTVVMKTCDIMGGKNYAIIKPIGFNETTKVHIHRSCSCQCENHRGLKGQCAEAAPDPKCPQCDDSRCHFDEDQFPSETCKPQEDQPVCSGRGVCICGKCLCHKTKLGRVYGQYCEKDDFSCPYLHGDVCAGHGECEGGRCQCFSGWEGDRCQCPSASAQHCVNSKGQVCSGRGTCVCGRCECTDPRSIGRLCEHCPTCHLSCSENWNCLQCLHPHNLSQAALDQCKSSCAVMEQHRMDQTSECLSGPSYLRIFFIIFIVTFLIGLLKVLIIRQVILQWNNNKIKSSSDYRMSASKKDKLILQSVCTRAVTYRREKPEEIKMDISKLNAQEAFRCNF
T6 sequence (P06756 31-992 limits assumed, chain 1 of 2): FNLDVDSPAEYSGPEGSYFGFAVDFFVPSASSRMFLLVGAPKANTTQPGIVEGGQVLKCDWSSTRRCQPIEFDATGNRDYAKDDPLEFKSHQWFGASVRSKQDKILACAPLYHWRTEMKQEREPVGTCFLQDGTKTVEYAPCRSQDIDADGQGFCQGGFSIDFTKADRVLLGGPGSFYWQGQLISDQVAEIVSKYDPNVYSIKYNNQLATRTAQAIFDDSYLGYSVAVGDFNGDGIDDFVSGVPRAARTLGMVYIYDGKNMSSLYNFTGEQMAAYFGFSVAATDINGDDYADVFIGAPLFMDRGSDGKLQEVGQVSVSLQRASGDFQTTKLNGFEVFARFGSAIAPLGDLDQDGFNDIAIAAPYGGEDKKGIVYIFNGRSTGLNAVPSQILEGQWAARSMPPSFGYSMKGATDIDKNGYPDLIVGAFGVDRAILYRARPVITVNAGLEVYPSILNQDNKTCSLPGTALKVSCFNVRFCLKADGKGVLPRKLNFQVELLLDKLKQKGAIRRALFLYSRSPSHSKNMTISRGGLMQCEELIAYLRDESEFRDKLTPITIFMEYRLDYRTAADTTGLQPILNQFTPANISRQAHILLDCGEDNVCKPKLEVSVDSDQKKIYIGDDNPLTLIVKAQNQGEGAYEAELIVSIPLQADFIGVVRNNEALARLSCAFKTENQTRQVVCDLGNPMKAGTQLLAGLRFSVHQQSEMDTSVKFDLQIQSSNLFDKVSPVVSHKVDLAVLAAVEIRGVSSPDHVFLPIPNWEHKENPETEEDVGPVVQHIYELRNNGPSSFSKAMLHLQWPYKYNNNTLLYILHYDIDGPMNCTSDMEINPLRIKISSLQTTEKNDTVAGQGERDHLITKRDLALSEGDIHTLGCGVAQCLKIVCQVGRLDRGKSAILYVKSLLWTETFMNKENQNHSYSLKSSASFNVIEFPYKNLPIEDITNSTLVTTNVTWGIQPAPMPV
T6 sequence (P18564 22-707 limits assumed, chain 2 of 2): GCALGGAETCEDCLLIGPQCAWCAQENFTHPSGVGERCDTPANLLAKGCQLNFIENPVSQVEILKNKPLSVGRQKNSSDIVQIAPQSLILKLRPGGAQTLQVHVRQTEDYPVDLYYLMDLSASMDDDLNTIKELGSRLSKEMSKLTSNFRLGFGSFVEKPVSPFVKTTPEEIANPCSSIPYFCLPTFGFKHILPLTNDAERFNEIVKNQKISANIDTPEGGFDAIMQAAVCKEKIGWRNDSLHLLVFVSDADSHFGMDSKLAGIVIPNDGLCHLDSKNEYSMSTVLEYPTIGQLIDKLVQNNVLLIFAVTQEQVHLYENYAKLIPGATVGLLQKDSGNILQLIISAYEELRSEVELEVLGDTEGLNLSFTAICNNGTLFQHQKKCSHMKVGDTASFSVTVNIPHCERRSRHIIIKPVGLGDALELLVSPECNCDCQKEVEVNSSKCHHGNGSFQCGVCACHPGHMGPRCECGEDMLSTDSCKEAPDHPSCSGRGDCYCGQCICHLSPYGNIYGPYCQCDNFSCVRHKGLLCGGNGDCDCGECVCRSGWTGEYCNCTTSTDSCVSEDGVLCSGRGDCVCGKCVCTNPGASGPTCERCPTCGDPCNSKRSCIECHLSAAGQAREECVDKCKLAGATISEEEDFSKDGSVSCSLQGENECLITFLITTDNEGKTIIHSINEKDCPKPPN

B1: ADWA11 VH05/VK01 Fab (Fab, V domains shown)
VH: EVQLVESGGGLVQPGGSLRLSCAASGFNIKDYYMNWVRQAPGKGLEWVGWIDPDNGNTIYDPKFQGRFTISADTSKNSAYLQMNSLRAEDTAVYYCARRLLMDYWGQGTLVTVSS
VL: DIQMTQSPSSLSASVGDRVTITCRSTKSLLHFNGNTYLFWYQQKPGKAPKRLIYYMSNLASGVPSRFSGSGSGTDFTLTISSLQPEDFATYYCMQSLEYPFTFGQGTKVEIK
notes: Fab; also called VH05-2_VK01 parental
Work on B1 yielded a Kd [1] of 0.16 nM, a koff [1] of 3.1e-05 s⁻¹ and a kon [1] of 194000 M⁻¹ s⁻¹. The Kd [2] was at most 0.1 nM, the koff [2] was at most 2e-05 s⁻¹ and the kon [2] was 220000 M⁻¹ s⁻¹. The Kd [3] was at most 0.1 nM, the koff [3] was at most 2e-05 s⁻¹ and the kon [3] was 225000 M⁻¹ s⁻¹. The Kd [4] was 0.118 nM, the koff [4] was 2.37e-05 s⁻¹ and the kon [4] was 200000 M⁻¹ s⁻¹. For the same binder, the EC50 (read off the curve) [5] was 1 nM, the EC50 (read off the curve) [6] was 1 nM and the Kd [7] was 0.05 nM and < 0.1 nM. For the same binder, the fold lower KD than the mouse hybridoma antibody ADWA-11 [7] was over 5 fold and the “EC50 value measured by apparent affinity in the TGF-β transactivation assay” value [8] was 1.3 nM.

B2: ADWA11 VH05-2/VK01 IgG (antibody, V domains shown)
VH: EVQLVESGGGLVQPGGSLRLSCAASGFNIKDYYMNWVRQAPGKGLEWVGWIDPDQGNTIYEPKFQGRFTISADTSKNSAYLQMNSLRAEDTAVYYCARRLLMDYWGQGTLVTVSS
VL: DIQMTQSPSSLSASVGDRVTITCRSTKSLLHFNGNTYLFWYQQKPGKAPKRLIYYMSNLASGVPSRFSGSGSGTDFTLTISSLQPEDFATYYCMQSLEYPFTFGQGTKVEIK
notes: also called ADWA11 5-2_1; VH05/VK01-N55Q-D61E
For B2, the EC50 [9] was 0.0711 nM, the EC50 [10] was 0.0591 nM and the binding result [11] was “no binding”. B2: no binding [12].

B3: ADWA11 VH05-2/VK01(2.1) antibody (antibody, V domains shown)
VH: EVQLVESGGGLVQPGGSLRLSCAASGFNIKDYYMNWVRQAPGKGLEWVGWIDPDQGNTIYEPKFQGRFTISADTSKNSAYLQMNSLRAEDTAVYYCARRLLMDYWGQGTLVTVSS
VL: DIQMTQSPSSLSASVGDRVTITCRSTKSLSHFNGNTYLFWYQQKPGKAPKRLIYYMSNLASGVPSRFSGSGSGTDFTLTISSLQPEDFATYYCQQSLEYPFTFGGGTKVEIK
notes: also called ADWA11 2.1
B3 was tested, and the EC50 [9] was 0.1 nM and the EC50 [10] was 0.106 nM.

B4: ADWA11 VH05-1/VK01 IgG (antibody, V domains shown)
VH: EVQLVESGGGLVQPGGSLRLSCAASGFNIKDYYMNWVRQAPGKGLEWVGWIDPDNGNTIYEPKFQGRFTISADTSKNSAYLQMNSLRAEDTAVYYCARRLLMDYWGQGTLVTVSS
VL: DIQMTQSPSSLSASVGDRVTITCRSTKSLLHFNGNTYLFWYQQKPGKAPKRLIYYMSNLASGVPSRFSGSGSGTDFTLTISSLQPEDFATYYCMQSLEYPFTFGQGTKVEIK
notes: VH05 with D61E; also called ADWA11 5-1_1; VH05/VK01-D61E
B4: no binding [11]; no binding [12].

B5: ADWA-11_4 mut (antibody, mouse IgG1, V domains shown)
VH: EVQLQQSGAELVRPGAFVKLSCKASGFNIKDYYMNWVLQRPEQGLEWIGWIDPDNGNTIYDPKFQGKASITADTSSNTAYLQLSSLTSEDTAVYYCARRLLMDYWGQGTSVTVSS
VL: DIVMTQAAPSVPVTPGESVSISCRSTKSLLHFNGNTYLFWFLQRPGQSPQRLIYYMSNLASGVPDRFSGRGSGTDFTLRISRVEAEDVGVYYCMQSLEYPFTFGTGTKLEIK
In the case of B5, the EC50 [13] is reported as 0.823 nM and the Kd [14] is reported as 0.823 nM.
